Assay results reported in publication PMC12926040, “ADP-ribose is a competitive inhibitor of methanol dehydrogenases from Bacillus methanolicus” (The Journal of Biological Chemistry, 2025).

Legend:
[1] = Specific activity of ACT and its mutants for the hydrolysis of ADPR; format: biochemical
Experimental: After a 5-minute incubation at 25°C, the reaction was terminated by the addition of 10 μL of 3 M H₂SO₄. The products were subsequently analyzed by HPLC.

BmMDH2 = BmMDH2 (Bacillus methanolicus, UniProt I3E949); test: BmMDH2 activation by ACT, NADH formation monitored at 340 nm; format: biochemical; settings: 100 nM BmMDH2, 3 mM NAD+, pH 9.5
Chain of BmMDH2 (I3E949 entry or part of it): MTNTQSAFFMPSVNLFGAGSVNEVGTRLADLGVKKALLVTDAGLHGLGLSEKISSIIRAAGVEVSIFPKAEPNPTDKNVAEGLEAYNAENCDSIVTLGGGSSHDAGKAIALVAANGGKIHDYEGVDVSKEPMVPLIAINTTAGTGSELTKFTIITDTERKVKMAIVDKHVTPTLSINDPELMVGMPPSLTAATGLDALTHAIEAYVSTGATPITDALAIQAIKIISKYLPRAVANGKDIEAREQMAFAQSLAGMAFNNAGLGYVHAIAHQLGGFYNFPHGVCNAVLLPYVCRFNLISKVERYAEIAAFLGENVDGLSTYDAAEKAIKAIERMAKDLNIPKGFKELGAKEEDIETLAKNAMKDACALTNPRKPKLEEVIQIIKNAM
Experimental: Figure 1 ACT-catalyzed conversion of NAD^+ into a compound that activates BmMDH2.A, effect of ACT concentration on BmMDH2 activation. The formation of NADH was monitored at 340 nm, with 100 nM BmMDH2 in glycine-NaOH buffer (pH 9.5) containing 0 to 125 nM ACT, 3 mM NAD^+, 20 mM ethanol, 5 mM MgCl2 and 0.5 mM MnCl2. Data for the initial 10 min are highlighted in the right panel. Data were from a single experiment. B, effects of the following treatments on BmMDH2 activation: preincubated ACT & NAD^+ (red), preincubated ACT & BmMDH2 (blue), ultrafiltrate of preincubated ACT & NAD^+ (green), and ultrafiltrate of ACT (purple) or NAD^+ (cyan) solutions. Preincubations were performed in glycine-NaOH buffer (pH 9.5) with 5 mM MgCl2 and 0.5 mM MnCl2 at 25 °C for 30 min. Ethanol, BmMDH2, or NAD^+ was subsequently added to achieve final concentrations of 10 nM ACT, 20 mM ethanol, 3 mM NAD^+, and 200 nM BmMDH2. For ultrafiltration, preincubated samples were filtered (10 kDa cutoff, Millipore), and the flowthrough was used for activation assays. Data represent means ± SD (n = 3). C, effect of NAD^+ concentration on BmMDH2 activation. Activity was measured using 100 nM BmMDH2 in glycine-NaOH buffer (pH 9.5) with 50 nM ACT, 0 to 20 mM NAD^+, 5 mM MgCl2, and 0.5 mM MnCl2. Data were from a single experiment. D, time-course of BmMDH2 activation. Reaction were performed in 200 μl glycine-NaOH buffer (100 mM, pH 9.5) with 5 mM MgCl2, 0.5 mM MnCl2, 0.25 mM NAD^+, 0.1 μM BmMDH2, 20 mM ethanol, and 50 nM ACT. Fresh NAD^+ (4 μl, 150 mM) was added twice during the reaction. Data were from a single experiment. E, catalytic rates of BmMDH2 were calculated from the slopes of the data in panel D. Additional replicates of the experiments shown in panels A, C, and D are provided in Fig. S4. […]
The catalytic processes of MDHs were monitored by measuring NADH absorbance at 340 nm using a Tecan SPARK UV-Vis plate reader (Tecan Austria GmbH) at 25 °C. […]

BmMDH1 = settings: ref [14], [15]; cited from earlier work

B1: ACT: activator protein ACT, Nudix hydrolase from B. methanolicus MGA3 with ADPRase activity (protein)
chain: MGKLFEEKTIKTEQIFSGRVVKLQVDDVELPNGQTSKREIVRHPGAVAVIAITNENKIVMVEQYRKPLEKSIVEIPAGKLEKGEDPRVTALRELEEETGYECEQMEWLISFATSPGFADEIIHLYVAKGLSKKENAAGLDEDEFVDLIELTLDEALQYIKEKRIYDSKTVIAVQYLQLQEALK
modifications: left off: His tag (from the vector pET21a(+) and the Ni-affinity column), end not stated, state not stated
Specific activity (ADPRase) ([1]; pH 8.0, 400 μM ADPR, 5 mM MgCl2, 25 °C): 61.2 ± 0.5 U/mg | ADPRase activity ([1]; pH 9.5): 51.6 ± 0.4 U/mg | time to full activation of BmMDH2 (BmMDH2; 31.3 nM ACT): ≤ 2.8 min | ACT concentration that triggered immediate BmMDH2 activation (BmMDH2): > 62 nM | increase of BmMDH1 activity (BmMDH1): 40 fold
